Consider two molecules from US20240350583A1, “COMPOSITION FOR PREVENTING OR TREATING FIBROTIC DISEASES, COMPRISING HAPLN1” (Chung Ang University Industry Academic Cooperation …, priority 2021, published 2024).

For assay [1] the following is noted: may vary from cell to cell; related literature; cited from earlier work.
Assay [2] deals with bleomycin-induced pulmonary fibrosis. Conditions: orally once daily, 14-day and 28-day groups; cited from earlier work.
The subject of assay [3] is human kidney renal tubule cell (Human Kidney 2, HK-2). Nature of the assay: Anti-fibrotic efficacy in HK-2 cells (drug after TGFβ1), αSMA western blot. It counts as cell-based. As for the experimental part:
(1) Human kidney renal tubule cells (HK-2) were seeded (2.8×10^5 cells/well) in a […] according to the experimental scheme of FIG. 7A and incubated in RPMI 1640 Medium (11875-093, Gibco) including 10% FBS for 24 hours in an incubator at 37° C. 5% CO2.
(2) Afterwards, the plates were washed several times with PBS, and each well of the plate was treated with TGFβ1 (5 ng/ml) and incubated for 24 hours.
(3) Subsequently, the plates were then treated with the composition of the present disclosure (rhHAPLN1 protein content of 0, 5, 10, 20, and 50 ng/ml) and pirfenidone 0.2 mg/mL (200 μg/mL), respectively, and incubated for 48 hours.
(4) Each sample was then washed several times with ice-cold PBS, treated with radioimmunoprecipitation assay (RIPA) lysis and extraction buffer (Thermo Scientific) including protease and phosphatase inhibitors, scraped with a scraper, and transferred to an E-tube.
(§1) (5) By centrifugation (12000 rpm, 20 minutes, 4° C.), only the supernatant was obtained, and BCA assay was performed to obtain quantitative protein values.
(6) After quantification using the obtained quantitative value, cooking was performed at 100° C. for 3 minutes and then stored in a −20° C. refrigerator. […]
(11) After washing three times with TBST for 10 minutes each, the samples were detected by Chemidoc.
Background: In western blotting, separated proteins are transferred to a membrane and probed.

In assay [4] the test system is renal proximal tubule epithelial cell (RPTEC). Kind of assay: Age-induced fibrosis of RPTEC (passage 11), αSMA western blot. It counts as cell-based. The settings on record: aged cells (P11); rhHAPLN1 100 ng/ml; 72 hours. As for the experimental part: (1) Renal proximal tubule epithelial cell (RPTEC) of the 3rd passage culture and 10th passage culture were seeded (5.0×10^5 cells) in 60Φ culture dishes and cultured in complete renal epithelial cell medium (ATCC PCS-400-030+ATCC PCS-400-040) in an incubator at 37° C. 5% CO2 for 24 hours.
(2) Subsequently, the cells were then treated with the composition of the present disclosure (rhHAPLN1 protein content of 0, 10, and 100 ng/ml, respectively) and cultured for an additional 72 hours.
(4) After washing three times with ice-cold PBS, each well was treated with 300 μl of RIPA lysis and extraction buffer including protease inhibitors and phosphatase inhibitors, scraped with a scraper to harvest cells, and transferred to an E-tube.
as §1
(6) Using a 4% to 15% precast acrylamide PAGE gel, proteins were loaded at 20 μg per lane and run (80V-20 minutes, 120V-1 hour 30 minutes).
(7) Western blot was performed on the samples. Here, anti-αSMA Ab (Abcam, ab7817), anti-GAPDH Ab (Santa Cruz, sc-32233) were used as primary antibodies and HRP-conjugated anti-mouse IgG Ab (CST, #7076) as secondary antibodies.

The subject of assay [5] is SAEMyoF system (small airway epithelial cells and adult fibroblasts). Kind of assay: BioMAP Fibrosis panel, SAEMyoF system (pulmonary fibrosis model), ELISA. It counts as cell-based. The text has this: (§2) The anti-fibrotic action effect of the composition of the present disclosure on pulmonary fibrosis and kidney fibrosis was verified by examining the expression level of various fibrosis markers using the BioMAP Fibrosis Panel (provided by Eurofins discovery).
(§3) BioMAP Fibrosis panel consists of three models, SAEMyoF system (co-culturing small airway epithelial cells and adult fibroblasts), REMyOF system (co-culture of renal proximal tubule epithelial cells and adult fibroblasts), and MyOF system (differentiated lung myofibroblasts). Here, the SAEMyoF system represents interstitial lung diseases (IDL), including pulmonary fibrotic diseases such as idiopathic pulmonary fibrosis (IPF), and the REMyOF system represents kidney fibrosis disease, which is associated with end-stage renal failure. However, experiments were conducted to confirm the effect of the MyoF system only on myofibroblasts.
(§4) (1) Each primary cell was used by pooling cells from multiple donors (n=3 to 6), and cells were first cultured in 96-well plates to confluence before adding a peripheral blood mononuclear cell (PBMC).
(§5) (2) Subsequently, the cells were then each treated with the composition of the present disclosure (rhHAPLN1 protein content of 0, 3.7, 11, and 33 ng/ml) at different concentrations and cultured for 1 hour.
(§6) (3) The plates were then treated with TNF and TGFβ1 and incubated for 48 hours.
(§7) (4) Direct enzyme-linked immunosorbent assay (ELISA) was performed on the expression levels of various biomarkers.
(§8) Each quantitative value was compared as a relative fold change compared to the vehicle control. Statistical processing was performed using unpaired t-test, significant differences vs vehicle control, *p<0.05, **p<0.01, and ***p<0.001.
In general terms: An ELISA detects its analyte on a solid surface through an enzyme-linked reagent.

The subject of assay [6] is REMyOF system (renal proximal tubule epithelial cells and adult fibroblasts). Nature of the assay: BioMAP Fibrosis panel, REMyOF system (kidney fibrosis model), ELISA. It counts as cell-based.
Excerpt: as §2, §3, §4, §5, §6, §7, §8

In assay [7] the test system is MyOF system (differentiated lung myofibroblasts). Kind of assay: BioMAP Fibrosis panel, MyoF system, ELISA. It counts as cell-based.
Excerpt: as §2, §3, §4
(2) Subsequently, the cells were then each treated with the composition of the present disclosure (rhHAPLN1 protein content of 0, 3.7, 11, and 33 ng/ml) at different concentrations and cultured for 1 hour. […]
Each quantitative value was compared as a relative fold change compared to the vehicle control. […]

Setting [8] is: regardless of rhHAPLN1 content (3.7, 11, 33 ng/ml).

Entries after “also recorded” stand apart in the source; their conditions may differ.

Turning to `Cc1ccc(=O)n(-c2ccccc2)c1` [pirfenidone, reference compound], the “effective doses in cells” value in assay [1] is ≥ 100 µg/mL. In addition, in assay [2], the “level of TGFβ1 increased by bleomycin” value is recorded as “decreased” and the “level of periostin increased by bleomycin” value is given as “decreased”.

B1: rhHAPLN1: recombinant human HAPLN1 protein of SEQ ID NO: 1 produced in CHO-K1 cells, stabilized in acetic acid buffer, sucrose, PS80, pH 5.0 (protein, listed as Homo sapiens)
chain: MKSLLLLVLISICWADHLSDNYTLDHDRAIHIQAENGPHLLVEAEQAKVFSHRGGNVTLPCKFYRDPTAFGSGIHKIRIKWTKLTSDYLKEVDVFVSMGYHKKTYGGYQGRVFLKGGSDSDASLVITDLTLEDYGRYKCEVIEGLEDDTVVVALDLQGVVFPYFPRLGRYNLNFHEAQQACLDQDAVIASFDQLYDAWRGGLDWCNAGWLSDGSVQYPITKPREPCGGQNTVPGVRNYGFWDKDKSRYDVFCFTSNFNGRFYYLIHPTKLTYDEAVQACLNDGAQIAKVGQIFAAWKILGYDRCDAGWLADGSVRYPISRPRRRCSPTEAAVRFVGFPDKKHKLYGVYCFRAYN
As to B1, the “anti-fibrotic efficacy (αSMA) compared to pirfenidone 0.2 mg/ml” value in assay [3] (rhHAPLN1 50 ng/ml) is recorded as “almost equivalent to that of pirfenidone”. The “anti-fibrotic efficacy (αSMA) compared to composition that does not include rhHAPLN1 protein (FIG. 7B, FIG. 7C)” value in assay [3] (rhHAPLN1 10 to 50 ng/ml, 48 hours after 24 hours TGFβ1) is on record as “superior anti-fibrotic action; also recorded: excellent anti-fibrotic efficacy”. For the same molecule, in assay [4], the “decrease of expression amount of αSMA protein compared to composition without rhHAPLN1 (FIG. 9B)” value was “about ⅓”. Moreover, in assay [5] (setting [8]), the “expression level of collagen I compared to vehicle control (FIG. 11A)” value is recorded as “consistently significantly reduced”. Further, in assay [5] (regardless of rhHAPLN1 content (3.7, 11, 33 ng/ml), TNF and TGFβ1 48 hours), the “expression level of αSMA, fold change compared to vehicle control (FIG. 11A)” value is ≤ 0.9 fold. Further, in assay [5] (rhHAPLN1 11 ng/ml), the “expression level of collagen I, fold change compared to vehicle control (FIG. 11A)” value is given as ≤ 0.8 fold. For the same molecule, the “optimal concentration for anti-fibrotic efficacy in the kidney (assumed)” value in assay [6] (collagen I) stood at 11 ng/mL. In addition, the results for the “expression level of collagen I, fold change compared to vehicle control (FIG. 11B)” value in assay [6] (setting [8]) and in assay [6] (rhHAPLN1 11 ng/ml) were ≤ 0.9 fold and ~0.7 fold, respectively. The “expression level of collagen I (MyoF system, FIG. 11C), fold change compared to vehicle control” value in assay [7] (in proportion to rhHAPLN1 content (3.7, 11, 33 ng/ml)) is on record as ≤ 0.8 fold. Also, in assay [7] (rhHAPLN1 33 ng/ml), the “expression level of collagen IV, fold change compared to vehicle control (FIG. 11C)” value was 0.7 fold.
